Sequences and labels used below:
B1: Opt2 M2Q L16T V12T (peptide)
peptide: HQVCLSYRGRPTCFST
modifications: not fully specified (bridges); cysteine pairing not given here
B2: Opt2 M2Q L16T R10 Q V12T (peptide)
peptide: HQVCLSYRGQPTCFST
modifications: not fully specified (bridges); cysteine pairing not given here
B3: Opt2 M2Q V12T (peptide)
peptide: HQVCLSYRGRPTCFSL
modifications: not fully specified (bridges); cysteine pairing not given here
B4: Opt2 14AA (peptide)
peptide: HMVCLSYRGRPVCF
modifications: not fully specified (bridges); cysteine pairing not given here
B5: Opt2 M2Q L16T R10Q (peptide)
peptide: HQVCLSYRGQPVCFST
modifications: not fully specified (bridges); cysteine pairing not given here
B6: Opt2 M2Q F14Y (peptide)
peptide: HQVCLSYRGRPVCYSL
modifications: not fully specified (bridges); cysteine pairing not given here
B7: Opt2 M2Q R10Q (peptide)
peptide: HQVCLSYRGQPVCFSL
modifications: not fully specified (bridges); cysteine pairing not given here
B8: Opt2 M2Q L16T (peptide)
peptide: HQVCLSYRGRPVCFST
modifications: not fully specified (bridges); cysteine pairing not given here
B9: Opt2 M2Q (peptide)
peptide: HQVCLSYRGRPVCFSL
modifications: not fully specified (bridges); cysteine pairing not given here
B10: Opt2 15AA (peptide)
peptide: HMVCLSYRGRPVCFS
modifications: not fully specified (bridges); cysteine pairing not given here

No end group written: not given here.

One test addresses human IgA (human). The test can be described thus: SPR (Biacore T100).
Details: not given
In general terms: SPR reads the build-up and loss of mass on a sensor chip optically.
As a reminder, the Kd is the constant that tells how readily two partners part at equilibrium. The molecule B1 yielded a Kd of 0.952 µM.
As to B2, the Kd was found to be 2.82 µM.
The molecule B3 had a Kd of 0.149 µM.
The molecule B4 came in with a Kd of 0.603 µM.
On to B5, for which the Kd turned out to be 0.699 µM.
As for B6, the Kd came out at 0.624 µM.
In turn, B7 gave a Kd of 0.065 µM.
Take B8: the dissociation constant (Kd) amounted to 0.072 µM.
On the same count and under the same terms, next, B9: 0.023 µM; B10: 0.491 µM.

The target of the next test is human IgA. As to the kind of experiment: Surface plasmon resonance analysis (BiaCore T100) of peptide binding to human IgA. The following applies: binding affinity to human IgA. The protocol:
In order to verify binding specificity of such peptides, binding strength was evaluated via surface plasmon resonance analysis using a BiaCore T100 (GE Healthcare).
Take HMVCLSYRGRPVCF [Opt2 14AA]: binding was characterised by a dissociation constant (Kd) of 0.603 µM.
In turn, HMVCLSYRGRPVCFS [Opt2 15AA] registered a Kd of 0.491 µM.
Turning to “HQVCLSYRGQPTCFST [Opt2 M2Q L16T R10 Q V12T]”, the Kd is 2.82 µM.
With HQVCLSYRGQPVCFSL [Opt2 M2Q R10Q], the dissociation constant Kd was found to be 0.065 µM.
Still for that read-out and setting: with HQVCLSYRGQPVCFST [Opt2 M2Q L16T R10Q] the figure was 0.699 µM.
For HQVCLSYRGRPTCFSL [Opt2 M2Q V12T], the Kd is 0.149 µM.
The molecule HQVCLSYRGRPTCFST [Opt2 M2Q L16T V12T] had an equilibrium dissociation constant (Kd) of 0.952 µM.
Take HQVCLSYRGRPVCFSL [Opt2 M2Q]: the Kd turned out to be 0.023 µM.
Molecule HQVCLSYRGRPVCFST [Opt2 M2Q L16T] showed a Kd of 0.072 µM.
For HQVCLSYRGRPVCYSL [Opt2 M2Q F14Y], binding was put at a Kd of 0.624 µM.

The values are drawn from patent US20150044701A1, “IgA-BINDING PEPTIDE AND IgA PURIFICATION USING THE SAME” (KAGOSHIMA UNIVERSITY, priority 2011, published 2015).
